Biological target: IL-1Rrp1 and mouse ACPL polypeptide coexpressed in transfected cells (IL-18 receptor) (mouse)
Experiment: cell-based or functional assay

IL-1Rrp1 and mouse ACPL polypeptide coexpressed in transfected cells (IL-18 receptor) (mouse), sequence (Q9Z2B1 15-614): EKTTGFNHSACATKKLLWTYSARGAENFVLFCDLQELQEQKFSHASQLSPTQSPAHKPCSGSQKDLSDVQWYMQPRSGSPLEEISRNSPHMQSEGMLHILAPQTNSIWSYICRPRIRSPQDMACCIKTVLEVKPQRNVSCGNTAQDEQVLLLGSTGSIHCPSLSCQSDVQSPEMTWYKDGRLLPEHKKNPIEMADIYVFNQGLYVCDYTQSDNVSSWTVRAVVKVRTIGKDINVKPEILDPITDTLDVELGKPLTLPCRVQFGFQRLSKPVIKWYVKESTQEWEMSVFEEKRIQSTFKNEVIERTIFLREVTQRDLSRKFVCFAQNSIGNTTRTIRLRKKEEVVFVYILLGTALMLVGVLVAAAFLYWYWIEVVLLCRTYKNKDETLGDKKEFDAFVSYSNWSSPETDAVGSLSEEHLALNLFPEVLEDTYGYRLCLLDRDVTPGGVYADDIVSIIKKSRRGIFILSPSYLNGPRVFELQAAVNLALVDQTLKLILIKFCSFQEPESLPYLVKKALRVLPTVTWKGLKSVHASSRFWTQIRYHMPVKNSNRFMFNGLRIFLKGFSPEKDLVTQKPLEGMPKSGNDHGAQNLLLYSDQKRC

induction of the NFkB-linked gene (NFkB-Luc luciferase reporter) in COS cells: 10 fold
induction of the NFkB-linked gene (NFkB-Luc luciferase reporter) in S49 cells: 300 fold
Substance: murine IL-18 (PeproTech) (from UniProt P70380 36-192) (ligand)

From patent US20040248254A1
